This note sets out measurements from patent EP4650366A1 (Beijing Tuo Jie Biopharmaceutical Co. Ltd., dated 2025).

Residue numbers refer to the chain shown, from its start. In names and notes the source's numbering stands. Where two headings read alike, the source gives them in different places.

For assay [1], the target named is T1, Mouse GARP-TGFβ1 complex (mouse, UniProt G3XA59 18-628; P04202 30-390).
T1 construct: Soluble recombinant complex, co-expressed in ExpiCHO cells and purified; also called Murine GARP-TGFβ1 complex
T1 sequence (G3XA59 other isoform, or with tags, fused parts or gaps limits assumed, chain 1 of 2): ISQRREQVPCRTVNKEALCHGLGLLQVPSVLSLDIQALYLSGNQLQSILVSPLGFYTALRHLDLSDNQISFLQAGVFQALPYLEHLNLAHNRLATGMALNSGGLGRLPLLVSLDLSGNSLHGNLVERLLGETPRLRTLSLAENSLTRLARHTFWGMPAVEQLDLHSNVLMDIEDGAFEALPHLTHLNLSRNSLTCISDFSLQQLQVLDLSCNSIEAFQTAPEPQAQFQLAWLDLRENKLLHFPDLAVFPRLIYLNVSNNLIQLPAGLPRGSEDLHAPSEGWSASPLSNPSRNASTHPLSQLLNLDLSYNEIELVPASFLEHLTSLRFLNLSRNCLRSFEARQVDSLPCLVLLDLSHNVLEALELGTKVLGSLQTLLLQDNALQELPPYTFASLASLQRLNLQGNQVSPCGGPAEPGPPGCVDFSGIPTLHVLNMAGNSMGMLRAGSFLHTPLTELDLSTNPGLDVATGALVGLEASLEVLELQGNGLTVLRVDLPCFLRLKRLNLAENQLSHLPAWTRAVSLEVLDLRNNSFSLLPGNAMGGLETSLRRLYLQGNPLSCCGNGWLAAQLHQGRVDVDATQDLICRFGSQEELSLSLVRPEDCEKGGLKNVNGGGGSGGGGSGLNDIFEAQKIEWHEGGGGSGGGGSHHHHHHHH
T1 sequence (P04202 30-390 limits assumed, chain 2 of 2): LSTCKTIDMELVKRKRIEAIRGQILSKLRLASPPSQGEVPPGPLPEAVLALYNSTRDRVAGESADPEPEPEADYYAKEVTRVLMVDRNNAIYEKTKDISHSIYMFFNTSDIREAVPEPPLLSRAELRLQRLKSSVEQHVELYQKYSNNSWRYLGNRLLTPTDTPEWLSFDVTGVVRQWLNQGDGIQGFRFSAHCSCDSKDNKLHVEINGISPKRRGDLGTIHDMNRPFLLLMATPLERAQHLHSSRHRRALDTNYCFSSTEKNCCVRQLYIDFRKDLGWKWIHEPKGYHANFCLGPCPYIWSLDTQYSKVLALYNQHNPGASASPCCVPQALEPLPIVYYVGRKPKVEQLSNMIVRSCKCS
Description: SPR (Biacore T200), method of Example 4. In general terms: Surface plasmon resonance follows binding to a sensor surface in real time, without labels.

Assay [2] has as its target T2, Human GARP-TGFβ1 complex (human, UniProt Q14392 20-627; P01137 30-390).
T2 construct: Soluble recombinant complex, co-expressed in ExpiCHO cells and purified; also called human GARP/TGFβ1 protein
Description: SPR (Biacore T200), method of Example 4.

Assay [3] has as its target T2, Human GARP-TGFβ1 complex. Description: SPR, method of Example 4; reference H27; antigen not given, taken as the human GARP-TGFβ1 complex as in Table 11.
The target in assay [4] is T2, Human GARP-TGFβ1 complex. Description: SPR (Biacore T200), method of Example 4. This is another data set of the same source.
The target of assay [5] is T3, human GARP-TGFβ2 complex expressed by transfected HEK293E cells (human, UniProt P61812 21-414; Q14392 20-662).
T3 construct: whole, on cells; also called TGFβ2-GARP complex; TGFβ2 + GARP
T3 sequence (looked up) 1: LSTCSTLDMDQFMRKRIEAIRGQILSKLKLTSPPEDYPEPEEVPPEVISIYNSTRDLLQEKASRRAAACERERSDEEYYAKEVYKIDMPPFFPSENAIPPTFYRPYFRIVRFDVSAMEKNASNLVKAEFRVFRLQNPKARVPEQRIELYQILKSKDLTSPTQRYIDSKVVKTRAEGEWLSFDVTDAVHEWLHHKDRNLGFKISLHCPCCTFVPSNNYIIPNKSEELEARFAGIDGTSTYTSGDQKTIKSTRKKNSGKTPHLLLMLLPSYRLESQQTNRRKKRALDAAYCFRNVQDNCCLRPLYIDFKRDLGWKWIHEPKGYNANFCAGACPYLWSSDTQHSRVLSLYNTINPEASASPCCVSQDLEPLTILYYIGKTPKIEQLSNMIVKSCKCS
T3 sequence (looked up) 2: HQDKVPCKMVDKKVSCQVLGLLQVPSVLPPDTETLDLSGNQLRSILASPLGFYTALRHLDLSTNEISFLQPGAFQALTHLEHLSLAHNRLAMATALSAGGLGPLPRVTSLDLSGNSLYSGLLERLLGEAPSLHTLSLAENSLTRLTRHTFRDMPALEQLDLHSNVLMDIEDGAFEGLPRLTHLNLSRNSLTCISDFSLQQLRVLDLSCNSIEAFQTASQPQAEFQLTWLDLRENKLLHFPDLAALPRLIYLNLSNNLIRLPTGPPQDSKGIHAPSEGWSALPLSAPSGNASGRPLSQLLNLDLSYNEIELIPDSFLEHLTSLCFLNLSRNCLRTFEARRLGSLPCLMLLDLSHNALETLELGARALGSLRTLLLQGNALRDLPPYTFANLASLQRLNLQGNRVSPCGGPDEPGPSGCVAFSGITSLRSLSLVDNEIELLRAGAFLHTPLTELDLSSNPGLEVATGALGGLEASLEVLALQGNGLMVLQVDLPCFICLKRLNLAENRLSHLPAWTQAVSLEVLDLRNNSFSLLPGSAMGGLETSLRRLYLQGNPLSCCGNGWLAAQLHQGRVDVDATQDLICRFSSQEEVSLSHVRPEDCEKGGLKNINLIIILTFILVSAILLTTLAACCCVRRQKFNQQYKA
Description: flow cytometry on transfected HEK293E cells, FITC anti-human Fc. (In general: A flow cytometer gives signals particle by particle.)

Assay [6] deals with T4, human TGFβ2 expressed by transfected HEK293E cells (human, UniProt P61812 21-414).
T4 construct: whole, on cells
T4 sequence (looked up): T3 sequence (looked up) 1
The description is as above.

In assay [7] the target is T5, mouse GARP-TGFβ1 complex expressed by transfected cells (mouse, UniProt P04202 30-390; G3XA59 18-663).
T5 construct: whole, on cells; also called mTGFβ1-mGARP complex; mTGFβ1 + mGARP
T5 sequence (P04202 30-390, chain 1 of 2): as the sequence (P04202 30-390 limits assumed, chain 2 of 2) above
T5 sequence (G3XA59 18-663, chain 2 of 2): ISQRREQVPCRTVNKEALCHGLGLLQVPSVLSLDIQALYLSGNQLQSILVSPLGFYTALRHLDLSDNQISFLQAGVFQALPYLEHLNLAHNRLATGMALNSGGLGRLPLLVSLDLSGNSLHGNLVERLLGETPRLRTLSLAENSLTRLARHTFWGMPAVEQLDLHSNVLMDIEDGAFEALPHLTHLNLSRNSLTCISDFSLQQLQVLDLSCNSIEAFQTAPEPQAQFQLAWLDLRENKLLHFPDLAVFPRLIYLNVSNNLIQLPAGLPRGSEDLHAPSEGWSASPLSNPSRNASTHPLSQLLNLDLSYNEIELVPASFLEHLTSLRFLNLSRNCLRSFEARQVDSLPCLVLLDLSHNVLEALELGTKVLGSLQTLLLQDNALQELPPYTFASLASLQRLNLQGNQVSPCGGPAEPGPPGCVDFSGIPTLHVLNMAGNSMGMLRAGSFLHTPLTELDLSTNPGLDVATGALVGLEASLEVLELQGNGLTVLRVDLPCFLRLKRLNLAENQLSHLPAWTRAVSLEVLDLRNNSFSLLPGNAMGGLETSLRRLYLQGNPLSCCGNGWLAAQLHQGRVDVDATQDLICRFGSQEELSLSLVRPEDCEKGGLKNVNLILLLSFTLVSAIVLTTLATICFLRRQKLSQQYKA
Description: flow cytometry on transfected HEK293E cells, 10 nM antibody.

Assay [8] addresses T6, mouse TGFβ1 expressed by transfected cells (mouse, UniProt P04202 30-390).
T6 construct: whole, on cells; also called mTGFβ1; murine TGFβ1
The assay is described as above.

In assay [9] the target is T7, human TGFβ1 expressed by transfected cells (human, UniProt P01137 30-390).
T7 construct: whole, on cells; also called human pro-TGFβ1
T7 sequence (P01137 30-390): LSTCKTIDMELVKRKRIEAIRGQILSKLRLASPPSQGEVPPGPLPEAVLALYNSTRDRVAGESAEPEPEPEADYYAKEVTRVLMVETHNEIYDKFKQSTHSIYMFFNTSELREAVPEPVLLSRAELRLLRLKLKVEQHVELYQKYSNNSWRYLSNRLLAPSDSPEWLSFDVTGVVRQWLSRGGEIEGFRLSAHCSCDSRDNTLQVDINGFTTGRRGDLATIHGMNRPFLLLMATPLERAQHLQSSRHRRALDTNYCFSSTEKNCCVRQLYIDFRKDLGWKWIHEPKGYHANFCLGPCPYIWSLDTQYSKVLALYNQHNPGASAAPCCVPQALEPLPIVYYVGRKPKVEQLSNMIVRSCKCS
The assay is described as above.

For assay [10], the target named is T8, human GARP-TGFβ1 complex expressed by transfected cells (human, UniProt P01137 30-390; Q14392 20-662).
T8 construct: whole, on cells; also called TGFβ1-GARP complex; TGFβ1 + GARP
T8 sequence (P01137 30-390, one chain of several): as the sequence (P01137 30-390) above
Described as above.

T2 sequence (P01137 30-390 limits assumed, one chain of several): as the sequence (P01137 30-390) above
T6 sequence (P04202 30-390): as the sequence (P04202 30-390 limits assumed, chain 2 of 2) above

B1: Ab6 (antibody, V domains shown)
VH: QVQLVESGGGVVQPGRSLRLSCAASGFAFSSYGMHWVRQAPGKGLEWVAVISYDGNNKYYADSVKGRFTISRDNSKNTLYLQMNSLRAEDTAVYYCARDLLVRFLEWSHKYGMDVWGQGTTVTVSS
VL: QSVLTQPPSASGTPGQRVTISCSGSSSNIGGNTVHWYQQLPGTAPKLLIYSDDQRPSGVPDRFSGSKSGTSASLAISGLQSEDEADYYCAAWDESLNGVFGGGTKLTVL
In general, Kd refers to the concentration at which binding is half-saturated. High values mean a looser complex, low ones a tighter complex. A word on the koff: it is the rate constant with which the complex falls apart. A word on the kon: it is a measure of how fast the partners come together. A high value points to faster complex formation. Take B1: in assay [1], the Kd stood at 0.226 nM, the koff amounted to 0.000106 s⁻¹ and the kon was found to be 469000 M⁻¹ s⁻¹. In assay [2], binding was put at a Kd of 0.332 nM, the koff is 0.000138 s⁻¹ and the kon is 417000 M⁻¹ s⁻¹.

B2: SL2-2 (antibody, human IgG4 S228P, kappa, V domains shown)
VH: not shown
VL: DIQMTQSPSSLSASVGDRVTITCRASQFISDYLNWYQQKPGKAPKLLIYTASYLDSGVPSRFSGSGSGTDFTLTISSLQPEDFATYYCQQSYSTPLTFGGGTKLEIKR
notes: Human IgG4-S228P/kappa, H27 heavy chain
In the case of B2, in assay [3], the “fold affinity over H27” value was determined as 5 fold. In assay [4], this molecule returned a Kd of 0.135 nM, a koff of 5.24e-05 s⁻¹ and a kon of 387000 M⁻¹ s⁻¹.

B3: SL2-12 (antibody, human IgG4 S228P, kappa, V domains shown)
VH: not shown
VL: B2 VL with F28Y, T50S
notes: as for B2
Take B3: the “fold affinity over H27” value in [3] stood at 5 fold. In assay [4], this molecule showed a Kd of 0.266 nM, a koff of 8.51e-05 s⁻¹ and a kon of 320000 M⁻¹ s⁻¹.

B4: SL2-9 (antibody, human IgG4 S228P, kappa, V domains shown)
VH: not shown
VL: B2 VL with D31P, T50A, Y53E, D55E
notes: as for B2
With B4, the “fold affinity over H27” value in assay [3] came out at 5 fold. In [4], this molecule registered a Kd of 0.475 nM, a koff of 8.54e-05 s⁻¹ and a kon of 180000 M⁻¹ s⁻¹.

B5: SL2-22 (antibody, human IgG4 S228P, kappa, V domains shown)
VH: not shown
VL: B2 VL with F28S
notes: Human IgG4-S228P/kappa, H27 heavy chain; also called TGFβ1 monoclonal antibody SL2-22; anti-human TGFβ1 antibody SL2-22
Take B5: the “fold affinity over H27” value in assay [3] is 5 fold. Besides, the Kd is 0.161 nM in assay [4], 0.228 nM in assay [1] and 0.254 nM in [2]. The values for the koff in assay [4], in assay [1] and in assay [2] were 6.08e-05 s⁻¹, 8.86e-05 s⁻¹ and 9.5e-05 s⁻¹, respectively. Moreover, the values for the kon in [4], in assay [1] and in assay [2] were 379000 M⁻¹ s⁻¹, 389000 M⁻¹ s⁻¹ and 375000 M⁻¹ s⁻¹, respectively. For the same molecule, the binding result in assay [5] was “no binding (tested: 10 nM)”; in assay [6], “no binding (tested: 10 nM)”; in assay [7] it was “binds”; in assay [8], “binds”; in [9], “binds”; in [10], “binds”.

B6: SL2-19 (antibody, human IgG4 S228P, kappa, V domains shown)
VH: not shown
VL: B2 VL with F28A, D31P, T50A, Y53E, D55E
notes: as for B2
As to B6, the “fold affinity over H27” value in assay [3] was 5 fold. Also, in assay [4], the affinity, expressed as Kd, was 0.362 nM; the koff was found to be 6.95e-05 s⁻¹; the kon was determined as 192000 M⁻¹ s⁻¹.
